Test results taken from PMC10491969 (Journal of Advanced Research, 2022).

Biological target: T1, Recombinant human TRAF2 protein (human, UniProt Q12933 1-501)
T1 sequence (looked up): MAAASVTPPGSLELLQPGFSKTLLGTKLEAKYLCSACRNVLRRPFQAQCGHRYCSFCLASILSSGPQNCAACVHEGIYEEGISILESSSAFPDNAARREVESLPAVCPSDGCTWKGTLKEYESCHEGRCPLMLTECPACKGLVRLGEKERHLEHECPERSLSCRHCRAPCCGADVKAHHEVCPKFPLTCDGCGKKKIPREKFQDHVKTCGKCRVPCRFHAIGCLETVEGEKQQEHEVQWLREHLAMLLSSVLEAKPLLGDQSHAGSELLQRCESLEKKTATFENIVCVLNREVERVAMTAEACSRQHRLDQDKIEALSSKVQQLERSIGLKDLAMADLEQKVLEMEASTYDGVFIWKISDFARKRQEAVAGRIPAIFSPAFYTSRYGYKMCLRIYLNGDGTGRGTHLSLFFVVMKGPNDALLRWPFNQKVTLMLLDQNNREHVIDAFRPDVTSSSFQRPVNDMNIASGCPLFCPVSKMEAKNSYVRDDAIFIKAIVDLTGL
Assay: SPR

B1: Recombinant human STING protein (natural protein, UniProt Q86WV6 135-379, looked up)
chain: GLKGLAPAEISAVCEKGNFNVAHGLAWSYYIGYLRLILPELQARIRTYNQHYNNLLRGAVSQRLYILLPLDCGVPDNLSMADPNIRFLDKLPQQTGDHAGIKDRVYSNSIYELLENGQRAGTCVLEYATPLQTLFAMSQYSQAGFSREDRLEQAKLFCRTLEDILADAPESQNNCRLIAYQEPADDSSFSLSQEVLRHLRQEEKEEVTVGSLKTSAVPSTSTMSQEPELLISGMEKPLPLRTDFS
B1 gave a Kd of 502 nM.
